The target in one data set is T1, FadD1 (Pseudomonas aeruginosa, UniProt Q9HYU4).
T1 construct: expressed in E. coli BL21, Ni-NTA, His-tag removed by TEV protease; labelled for MST
In words: microscale thermophoresis. It counts as binding.

For data set [1], the target named is T2, FadD1 (Pseudomonas aeruginosa PAO1) (UniProt Q9HYU4).
T2 sequence: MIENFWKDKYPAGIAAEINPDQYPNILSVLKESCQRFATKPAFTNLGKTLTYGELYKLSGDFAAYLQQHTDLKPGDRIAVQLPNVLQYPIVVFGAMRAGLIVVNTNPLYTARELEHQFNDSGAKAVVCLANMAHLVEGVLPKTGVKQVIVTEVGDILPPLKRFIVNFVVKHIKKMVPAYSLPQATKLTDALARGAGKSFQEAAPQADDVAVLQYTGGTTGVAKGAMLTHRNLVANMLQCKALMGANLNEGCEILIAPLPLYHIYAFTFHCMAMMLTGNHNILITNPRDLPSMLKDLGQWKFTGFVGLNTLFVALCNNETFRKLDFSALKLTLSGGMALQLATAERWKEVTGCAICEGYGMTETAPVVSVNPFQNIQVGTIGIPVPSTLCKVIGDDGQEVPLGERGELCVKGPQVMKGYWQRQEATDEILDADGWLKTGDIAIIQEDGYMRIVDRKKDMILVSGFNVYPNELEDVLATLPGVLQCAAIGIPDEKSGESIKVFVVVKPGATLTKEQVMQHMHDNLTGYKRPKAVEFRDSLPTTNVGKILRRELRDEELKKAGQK
In words: EMSA. A general note: In EMSA bound probe runs differently from free probe, usually more slowly.

Take `CCCCCCCCC/C=C\C(=O)O` [BDSF]: binding on FadD1 was characterised by a dissociation constant (Kd) of 1.65 ± 0.21 µM.

`CCCCCCC/C=C\C(=O)O` [cis-DA] had a Kd on FadD1 of 1.06 ± 0.14 µM.

As to “ATCTCATGCAGATGCCGGAGTTCTCCCTGAACTTCGCCTTGTTGCATACATGGCAAGCGCGCCATGGCGGAGCGCGACGGCTGAATATCTAGCACGAAAGTGAAAATAGAAAAGAACGAGATTTCATAAGGGCGGGCGCCGTTTTTAACAGGTTGTTCATGCGTCGCCGCTAGTTTGTTGTCTTTCACAGAACTGTTCGATGAACGGACTTGTTGCATTAGAACAATAAGTCCCGATGGAACTTCGGGGGACCGTGTGAAGCGTTCGCTGTTCAATTGTGCGCAC (double strand) [PA0692 promoter]”, the binding result in data set [1] is “binds”.

In the case of “GTCGGCGTTTCATGGAATTGTCACAACCGCACAGTATCGCTTGCGGTAAAGCGGCCCAGGTGGTCGAACGTTGTCATAGGGAGGGGGATGCTCGATGGCTGAAGGCTGCGTCCTGAACGGTGCTGGCATAACAGATAGGGTTGCCATGATTTTGCCGTATCGGCAAGGCTGCGCGCTTGACAGCGTCATACCCCGGGCCAATTCTGCTGTGATGCATTTTATCGATCAGGGCTTACTGCAATGAGGAATGACGGAGGCTTTTTGCTGTGG (double strand) [rhlR promoter]”, the binding result in data set [1] is reported as “no binding”.

Turning to “GTGCGCACAATTGAACAGCGAACGCTTCACACGGTCCCCCGAAGTTCCATCGGGACTTATTGTTCTAATGCAACAAGTCCGTTCATCGAACAGTTCTGTGAAAGACAACAAACTAGCGGCGACGCATGAACAACCTGTTAAAAACGGCGCTATGAAATCTCGTTCTTTTCTATTTTCACTTTCGTGCTAGATATTCAGCCGTCGCGCTCCGCCATGGCGCGCTTGCCATGTATGCAACAAGGCGAAGTTCAGGGAGAACTCCGGCATCTGCATGAGAT (double strand) [PA0692 promoter, AGGGCGG deleted]”, the binding result in data set [1] is “no binding”.

Broadly, the Kd is a measure of binding affinity in units of concentration. A higher Kd goes with lower affinity.

(Values after article PMC12754631, “Cis‐2‐decenoic acid modulates Pseudomonas aeruginosa virulence through a noncanonical transcriptional regulator” (mLife, 2025).)
